The results in this text go back to patent US20230174595A1.

For assay [1], the target named is recombinant His-tagged HIV-1 gp120 Q769.h5 (Clade A) (HIV-1 strain Q769.h5).
For assay [2] the target is unchanged. The assay can be described thus: SPR, His-tagged gp120 on NTA chip (FIG. 7).

For “AvFc lectibody (Avaren fused via a linker to the Fc region of human IgG1) (Fc fusion)”, in assay [1], the Kd was 4.2 nM. The fold increase in affinity compared to AH in assay [2] turned out to be 10 fold.

Turning to “actinohivin (AH), wild type (from UniProt Q9KWN0 47-160)”, the dissociation constant (Kd) in assay [1] was found to be 29.6 nM.

What is called Kd is the constant that tells how readily two partners part at equilibrium.
